# Measured values taken from paper PMC8558838 (The Journal of Experimental Medicine, 2021).
# B1: hCD160-6×His tag protein [human] / WT hHVEM (L39-V202) fused with a PD-L1 transmembrane domain and EGFP, on cells [human] (parent complex)
# chain 1: GCINITSSASQEGTRLNLICTVWHKKEEAEGFVVFLCKDRSGDCSPETSLKQLRLKRDPGIDGVGEISSQLMFTISQVTPLHSGTYQCCARSQKSGIRLQGHFFSILFTETGNYTVTGLKQRQHLEFSHNEGTLS
# chain 2: LPSCKEDEYPVGSECCPKCSPGYRVKEACGELTGTVCEPCPPGTYIAHLNGLSKCLQCQMCDPAMGLRASRNCSRTENAVCGCSPGHFCIVQDGDHCAACRAYATSSPGQRVQKGGTESQDTLCQNCPPGTFSPNGTLEECQHQTKCSWLVTKAGAGTSSSHWV
# B2: human LIGHT extracellular domain (L83-V240) [human] / WT hHVEM (L39-V202) fused with a PD-L1 transmembrane domain and EGFP, on cells [human] (parent complex)
# chain 1: LIQERRSHEVNPAAHLTGANSSLTGSGGPLLWETQLGLAFLRGLSYHDGALVVTKAGYYYIYSKVQLGGVGCPLGLASTITHGLYKRTPRYPEELELLVSQQSPCGRATSSSRVWWDSSFLGGVVHLEAGEKVVVRVLDERLVRLRDGTRSYFGAFMV
# chain 2: B1 chain 2
# Variants of: B1
# Test: flow cytometry on cells stained with soluble protein
row,Variant,ratio to parent
1,chain 2 L56A,1.1
2,chain 2 L52A,1.1

# Variants of: B2
# Test: as above
row,Variant,ratio to parent
1,chain 2 G51A,1.2
2,chain 2 L56A,1.8
3,chain 2 E77A,1
4,chain 2 N50A,0.7
5,chain 2 L49A,1.2
6,chain 2 L52A,0.9
